# Measurements taken from patent publication US20080166798A1 (BARNES JEWISH HOSPITAL, published 2008).
# B1: mIIA-211 (other, human;rat, UniProt P02458 26-203, looked up)
# chain: QDVQEAGSCVQDGQRYNDKDVWKPEPCRICVCDTGTVLCDDIICEDVKDCLSPEIPFGECCPICPTDLATASGQPGPKGQKGEPGDIKDIVGPKGPPGPQGPAGEQGPRGDRGDKGEKGAPGPRGRDGEPGTPGNPGPPGPPGPPGPPGLGGNFAAQMAGGFDEKAGGAQLGVMQGPMDSAALRQQ
# notes: domain: NH2-propeptide (exons 1-8);domain: first heptad repeat of the coiled-coil neck domain; Truncation mutant of IIA/SP-D; also called IIA NH2-propeptide fused to the first heptad repeat
# B2: IIA NH2-propeptide synthesized without fusion to the neck/CRD domains of SP-D (other, human, UniProt P02458 26-203, looked up)
# chain: QDVQEAGSCVQDGQRYNDKDVWKPEPCRICVCDTGTVLCDDIICEDVKDCLSPEIPFGECCPICPTDLATASGQPGPKGQKGEPGDIKDIVGPKGPPGPQGPAGEQGPRGDRGDKGEKGAPGPRGRDGEPGTPGNPGPPGPPGPPGPPGLGGNFAAQMAGGFDEKAGGAQLGVMQGPM
# notes: domain: NH2-propeptide (exons 1-8); Transiently transfected CHO cells; secreted as monomers; also called control construct of full-length IIA NH2-propeptide only
# B3: mIIA-203 (other, human, UniProt P02458 26-203, looked up)
# chain: B2 chain
# notes: domain: NH2-propeptide (exons 1-8); Truncation mutant of IIA/SP-D, control
# Key:
# [1] = biological target: the molecule itself; assay: self-association; BS3 cross-linking (0-2 mM), anti-IIA immunoblot
# Method: J. 318:505-511 (1996)) (FIG. 8). Each mutant protein was covalently cross-linked and the presence of protein monomers, dimers or trimers was detected by immunoblotting using the anti-IIA antibody. […] The IIA NH₂-propeptide attached to the 35 amino acid stretch of the coiled-coil neck (mIIA-237) was also secreted as a non-covalent trimer. However, lower concentrations of cross-linker (0.1-0.2 mM) were sufficient for detection of mIIA-237 trimers compared to concentrations used to detect trimers of the other truncated mutant proteins (0.5-1 mM), and no dimeric intermediate was identified. Co-operativity exists between the IIA NH₂-propeptide collagen domain and the 14 amino acid sequence of the SP-D coiled-coil neck domain
# To determine the minimum sequence that can function as a trimerizing unit, mutant constructs were designed containing termination codons at specific locations within the heptad repeats of the coiled-coil. Using IIA/SP-D cDNA in pGEM-3Z as a substrate, four mutant constructs were synthesized using the QuikChangem Site-Directed Mutagenesis Kit (Stratagene, La Jolla, Calif.). The sequence of the mutant was confirmed by DNA sequencing. […] Proteins were detected by SDS-PAGE and immunolocalization of Western blots using the anti-IIA polyclonal antibody.
# [2] = biological target: the molecule itself; assay: self-association; BS3 cross-linking, IIA Western blot
# Description: Chemical crosslinking was used to examine the state of oligomerization of the IIA collagen domain.
Protein,binding result [1],binding result [2]
B1,no binding,–
B2,–,no binding
B3,no binding,–
